Data taken from US10117916B2, “Peptides and combination of peptides for use in immunotherapy against CLL and other cancers” (immatics biotechnologies GmbH, priority 2015, dated 2018).

Target: HLA-A*02:01 (Homo sapiens, UniProt P04439, D140Y/D185E/D98H/E176V/E277Q/G131W/G231S/I119V/I121R/I166T/I218V/L300P/L318F/N151K/N90K/P208A/P217A/Q86G/Q94H/R138H/R169H/T345S)
Test: MHC binding assay: UV-ligand exchange with β2m ELISA (peptide exchange yield)
Conditions: MHC class I binding score; binding to HLA-A*02:01 ranged by peptide exchange yield (UV-ligand exchange, β2m ELISA)
In short: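 Binding capacity is expressed as the yield of UV-mediated ligand exchange, reflecting how well each peptide stabilizes peptide-receptive MHC. Stabilized complexes are read out by anti-β2m HRP ELISA (450 nm) after streptavidin capture, with refolded MLA-001 monomer standards for quantitation.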

Substance | Peptide Exchange
151 (SLFDSAYGA; listed as Homo sapiens) [compound 151] | ″+++″ (≥50 = +++)
89 (ILDFGTFQL; listed as Homo sapiens) [compound 89] | ″+++″ (≥50 = +++)
7 (ALLERTGYTL; listed as Homo sapiens) [compound 7] | ″+++″ (≥50 = +++)
43 (FLLGPEALSFA; listed as Homo sapiens) [compound 43] | ″++++″ (≥75% = ++++)
78 (GLPSFLTEV; listed as Homo sapiens) [compound 78] | ″+++″ (≥50 = +++)
67 (GLDDVTVEV; listed as Homo sapiens) [compound 67] | ″++″ (≥20% = ++)
135 (MTAGFSTIAGSV; listed as Homo sapiens) [compound 135] | ″+″ (≥10% = +)
25 (ATYSGLESQSV; listed as Homo sapiens) [compound 25] | ″++″ (≥20% = ++)
48 (FLSPQQPPLL; listed as Homo sapiens) [compound 48] | ″+++″ (≥50 = +++)
184 (VLSHNLYTV; listed as Homo sapiens) [compound 184] | ″+++″ (≥50 = +++)
35 (FILPSSLYL; listed as Homo sapiens) [compound 35] | ″+++″ (≥50 = +++)
105 (KLMNDIADI; listed as Homo sapiens) [compound 105] | ″++″ (≥20% = ++)
187 (VMDTHLVNI; listed as Homo sapiens) [compound 187] | ″++++″ (≥75% = ++++)
145 (SALDTITTV; listed as Homo sapiens) [compound 145] | ″+++″ (≥50 = +++)
36 (FILTHVDQL; listed as Homo sapiens) [compound 36] | ″++++″ (≥75% = ++++)
142 (QLDEPAPQV; listed as Homo sapiens) [compound 142] | ″++″ (≥20% = ++)

Substance | Peptide Exchange
8 (ALAASALPALV; listed as Homo sapiens) [compound 8] | ″+++″ (≥50 = +++)
178 (VLFFNVQEV; listed as Homo sapiens) [compound 178] | ″+++″ (≥50 = +++)
124 (LLLEETEKQAV; listed as Homo sapiens) [compound 124] | ″+++″ (≥50 = +++)
68 (GLDQQFAGLDL; listed as Homo sapiens) [compound 68] | ″+″ (≥10% = +)
193 (YLDLSNNRL; listed as Homo sapiens) [compound 193] | ″+++″ (≥50 = +++)
41 (FLDPSLDPLL; listed as Homo sapiens) [compound 41] | ″+++″ (≥50 = +++)
29 (AVLQAVTAV; listed as Homo sapiens) [compound 29] | ″+++″ (≥50 = +++)
139 (NLTDVVEKL; listed as Homo sapiens) [compound 139] | ″+++″ (≥50 = +++)
82 (GLQSGVDIGV; listed as Homo sapiens) [compound 82] | ″+++″ (≥50 = +++)
30 (ELLEGSEIYL; listed as Homo sapiens) [compound 30] | ″+++″ (≥50 = +++)
90 (VIADLGLIRV; listed as Homo sapiens) [compound 90] | ″+++″ (≥50 = +++)
143 (QLLDTYFTL; listed as Homo sapiens) [compound 143] | ″+++″ (≥50 = +++)
46 (YIIDSAQAV; listed as Homo sapiens) [compound 46] | ″+++″ (≥50 = +++)
185 (VMDDQRDLI; listed as Homo sapiens) [compound 185] | ″++″ (≥20% = ++)
11 (ALFTFSPLTV; listed as Homo sapiens) [compound 11] | ″+++″ (≥50 = +++)
98 (SLIKYFLFV; listed as Homo sapiens) [compound 98] | ″+″ (≥10% = +)

More lines, now with the values ahead:

Peptide Exchange | Substance
″+++″ (≥50 = +++) | 256 (QLLPVSNVVSV; listed as Homo sapiens) [compound 256]
″+++″ (≥50 = +++) | 318 (NLQVTQPTV; listed as Homo sapiens) [compound 318]
″++++″ (≥75% = ++++) | 229 (FLLNLQNCHL; listed as Homo sapiens) [compound 229]
″+++″ (≥50 = +++) | 350 (ALEDRVWEL; listed as Homo sapiens) [compound 350]
″+++″ (≥50 = +++) | 264 (TILDYINVV; listed as Homo sapiens) [compound 264]
″+++″ (≥50 = +++) | 362 (ILTELGGFEV; listed as Homo sapiens) [compound 362]
″++″ (≥20% = ++) | 277 (VMILKLPFL; listed as Homo sapiens) [compound 277]
″+++″ (≥50 = +++) | 198 (YLTFLPAEV; listed as Homo sapiens) [compound 198]
″+++″ (≥50 = +++) | 310 (LLSTLHLLV; listed as Homo sapiens) [compound 310]
″+++″ (≥50 = +++) | 253 (NLWSVDGEVTV; listed as Homo sapiens) [compound 253]
″+++″ (≥50 = +++) | 265 (TLLADDLEIKL; listed as Homo sapiens) [compound 265]
″+++″ (≥50 = +++) | 223 (ALWVSQPPEI; listed as Homo sapiens) [compound 223]
″+++″ (≥50 = +++) | 222 (ALWELSLKI; listed as Homo sapiens) [compound 222]
″+++″ (≥50 = +++) | 210 (KLLVQDFFL; listed as Homo sapiens) [compound 210]
″+++″ (≥50 = +++) | 260 (SLDDVEGMSV; listed as Homo sapiens) [compound 260]
″+++″ (≥50 = +++) | 215 (VMQDIVYKL; listed as Homo sapiens) [compound 215]
″+++″ (≥50 = +++) | 206 (HMQDVRVLL; listed as Homo sapiens) [compound 206]
″+++″ (≥50 = +++) | 297 (FLVEPQEDTRL; listed as Homo sapiens) [compound 297]
″++++″ (≥75% = ++++) | 383 (YLLREWVNL; listed as Homo sapiens) [compound 383]
″++″ (≥20% = ++) | 246 (KLDETGVAL; listed as Homo sapiens) [compound 246]
″+++″ (≥50 = +++) | 255 (YLFEEAISM; listed as Homo sapiens) [compound 255]
″+++″ (≥50 = +++) | 351 (ALSEKLARL; listed as Homo sapiens) [compound 351]
″+++″ (≥50 = +++) | 286 (FLLEDLSQKL; listed as Homo sapiens) [compound 286]

Peptide Exchange | Substance
″+++″ (≥50 = +++) | 219 (ALLNLLESA; listed as Homo sapiens) [compound 219]
″++++″ (≥75% = ++++) | 328 (VLLPQETAEIHL; listed as Homo sapiens) [compound 328]
″+++″ (≥50 = +++) | 355 (FIWPMLIHI; listed as Homo sapiens) [compound 355]
″+++″ (≥50 = +++) | 252 (NLLDPGSSYLL; listed as Homo sapiens) [compound 252]
″+++″ (≥50 = +++) | 370 (SIFASPESV; listed as Homo sapiens) [compound 370]
″++″ (≥20% = ++) | 337 (YMYEKESEL; listed as Homo sapiens) [compound 337]
″+++″ (≥50 = +++) | 363 (ITTEVVNELYV; listed as Homo sapiens) [compound 363]
″+++″ (≥50 = +++) | 375 (VLWFKPVEL; listed as Homo sapiens) [compound 375]
″+++″ (≥50 = +++) | 263 (SQWEDIHVV; listed as Homo sapiens) [compound 263]
″+++″ (≥50 = +++) | 346 (VLVQVSPSL; listed as Homo sapiens) [compound 346]
″+++″ (≥50 = +++) | 204 (GLLQINDKIAL; listed as Homo sapiens) [compound 204]
″+++″ (≥50 = +++) | 364 (KMDWIFHTI; listed as Homo sapiens) [compound 364]
″++″ (≥20% = ++) | 218 (ALGEEWKGYVV; listed as Homo sapiens) [compound 218]
″+++″ (≥50 = +++) | 261 (SLVEAQGWLV; listed as Homo sapiens) [compound 261]
″+++″ (≥50 = +++) | 360 (HLIDTNKIQL; listed as Homo sapiens) [compound 360]
″+++″ (≥50 = +++) | 314 (LMKDCEAEV; listed as Homo sapiens) [compound 314]
″+++″ (≥50 = +++) | 295 (ALLQKLQQL; listed as Homo sapiens) [compound 295]
″+++″ (≥50 = +++) | 209 (ILQAELPSL; listed as Homo sapiens) [compound 209]
″++″ (≥20% = ++) | 373 (TLLADQGEIRV; listed as Homo sapiens) [compound 373]
″+++″ (≥50 = +++) | 254 (QLIPKLIFL; listed as Homo sapiens) [compound 254]
″+++″ (≥50 = +++) | 289 (ILEEQPMDMLL; listed as Homo sapiens) [compound 289]
″++++″ (≥75% = ++++) | 308 (SLYDVSRMYV; listed as Homo sapiens) [compound 308]
″+++″ (≥50 = +++) | 379 (YLAELVTPIL; listed as Homo sapiens) [compound 379]
